# Source: patent US20250011363A1, “OPTIMIZED SHORTENED PEPTIDE THAT BINDS TO ACETYLCHOLINE RECEPTOR, AND USE THEREOF” (SKINMED CO., LTD., priority 2021, published 2025)
# Molecular target: acetylcholine receptor
# Experiment: SPR, AchR immobilised on chip, peptide 10 uM
row,Binder,Binding affinity (RU)
1,RKSVCR [6mer-1-265],145
2,RKQLQR [6mer-1-262],139
3,KRRQSK [6mer-1-268],144
4,KKGRLK [6mer-1-266],144
5,KRRLLR [6mer-1-267],139
6,RKQRTK [6mer-1-260],141
7,KRWVTR [6mer-1-261],121
8,RRQYQR [6mer-1-264],128
9,RKSYTK [6mer-1-263],146

# Molecular target: acetylcholine receptor
# Experiment: SPR, AchR immobilised on CM5 chip, peptide at 10 uM
row,Binder,Binding affinity (RU)
1,RDAPR [5mer-1153],27
2,KYSGK [5mer-1174],25
3,KFTNR [5mer-1150],12
4,KECKR [5mer-1173],30
5,KIKKK [5mer-1162],15
6,KDSWK [5mer-867],14
7,KTNAR [5mer-1151],26
8,KYHPR [5mer-864],25
9,RHHWR [5mer-1168],31
10,REEGR [5mer-882],18
11,KKNAK [5mer-862],19
12,KHNAR [5mer-859],26
13,REKWK [5mer-1182],15
14,KIPVR [5mer-1177],20
15,RNTER [5mer-854],21
16,KETAK [5mer-1180],27
17,KDSMK [5mer-852],22
18,RHAPK [5mer-1183],13
19,KIHFK [5mer-1176],25
20,RIMGR [5mer-858],33
21,RMMER [5mer-865],21
22,KIWWR [5mer-1172],25
23,KHTER [5mer-878],24
24,KKSKR [5mer-1163],12

row,Binder,Binding affinity (RU)
1,KMHFK [5mer-868],18
2,RINWR [5mer-866],11
3,KDCMK [5mer-879],13
4,KTWMK [5mer-849],15
5,KDTPK [5mer-1169],29
6,KKAKR [5mer-1181],22
7,KESWK [5mer-1167],12
8,KYDIR [5mer-850],13
9,KENFK [5mer-1152],18
10,RMNVR [5mer-1179],18
11,KHSEK [5mer-1170],28
12,KPPDR [5mer-856],23
13,KMCWK [5mer-851],19
14,KTSHR [5mer-1157],21
15,RFPWR [5mer-1164],33
16,KKWKK [5mer-1159],17
17,KTHEK [5mer-1166],32
18,KHCNK [5mer-875],33
19,KETAR [5mer-876],16
20,RCKVK [5mer-870],25
21,RKKWK [5mer-872],29
22,KETDR [5mer-1149],25
23,RCHAK [5mer-860],31
24,KMSAK [5mer-883],16

row,Binder,Binding affinity (RU)
1,RDMIR [5mer-1175],30
2,RFSMR [5mer-877],17
3,RNMNR [5mer-1165],21
4,KKHPK [5mer-869],31
5,REANR [5mer-863],16
6,KKMNK [5mer-1156],13
7,KCHDR [5mer-1161],21
8,RNDAK [5mer-881],31
9,RHSHR [5mer-871],21
10,KYNPR [5mer-1158],23
11,KMENR [5mer-857],23
12,KTKIR [5mer-861],20
13,RIHMR [5mer-874],27
14,KCWVR [5mer-1154],12
15,KETWR [5mer-1160],14
16,RFDNR [5mer-1178],22
17,RYNFR [5mer-873],32
18,RYHIK [5mer-853],13
19,RCSWK [5mer-1171],21
20,RCDKK [5mer-880],17
21,RFMKK [5mer-855],18
22,RYDMK [5mer-1155],25
